According to patent US20160264649A1:

Legend:
Experiment in all cases: cell-based or functional assay
[1] = molecular target: HIV-1 92RW008 Env (HIV-1)
[2] = molecular target: HIV-1 92TH021 Env (HIV-1)
[3] = molecular target: HIV-1 92UG031 Env (HIV-1)
[4] = molecular target: HIV-1 92UG037 Env (HIV-1)
[5] = molecular target: HIV-1 92WR009 Env (HIV-1)
[6] = molecular target: HIV-1 92WR020 Env (HIV-1)
[7] = molecular target: HIV-1 92WR021 Env (HIV-1)
[8] = molecular target: HIV-1 92WR024 Env (HIV-1)
[9] = molecular target: HIV-1 92WR026 Env (HIV-1)
[10] = molecular target: HIV-1 93UG077 Env (HIV-1)
[11] = molecular target: HIV-1 93WR029 Env (HIV-1)
[12] = molecular target: HIV-1 94KE105 Env (HIV-1)
[13] = molecular target: HIV-1 94UG103 Env (HIV-1)
HIV-1 CMU02 Env (HIV-1) = molecular target: HIV-1 CMU02 Env (HIV-1)
[14] = molecular target: HIV-1 MGRM-A-001 Env (HIV-1)
[15] = molecular target: HIV-1 MGRM-A-002 Env (HIV-1)
[16] = molecular target: HIV-1 MGRM-A-003 Env (HIV-1)
[17] = molecular target: HIV-1 MGRM-A-004 Env (HIV-1)
[18] = molecular target: HIV-1 MGRM-A-005 Env (HIV-1)
[19] = molecular target: HIV-1 MGRM-A-006 Env (HIV-1)
[20] = molecular target: HIV-1 MGRM-A-007 Env (HIV-1)
[21] = molecular target: HIV-1 MGRM-A-008 Env (HIV-1)
[22] = molecular target: HIV-1 MGRM-A-009 Env (HIV-1)
[23] = molecular target: HIV-1 MGRM-A-010 Env (HIV-1)
[24] = molecular target: HIV-1 MGRM-A-011 Env (HIV-1)
[25] = molecular target: HIV-1 MGRM-A-012 Env (HIV-1)
[26] = molecular target: HIV-1 MGRM-A-013 Env (HIV-1)
[27] = molecular target: HIV-1 MGRM-A-014 Env (HIV-1)
[28] = molecular target: HIV-1 MGRM-AE-001 Env (HIV-1)
[29] = molecular target: HIV-1 MGRM-AE-002 Env (HIV-1)
[30] = molecular target: HIV-1 MGRM-AE-003 Env (HIV-1)
[31] = molecular target: HIV-1 MGRM-AE-004 Env (HIV-1)
[32] = molecular target: HIV-1 MGRM-AE-005 Env (HIV-1)
[33] = molecular target: HIV-1 MGRM-AE-006 Env (HIV-1)
[34] = molecular target: HIV-1 MGRM-AE-007 Env (HIV-1)
[35] = molecular target: HIV-1 MGRM-AE-008 Env (HIV-1)
[36] = molecular target: HIV-1 MGRM-AG-001 Env (HIV-1)
[37] = molecular target: HIV-1 MGRM-AG-002 Env (HIV-1)
[38] = molecular target: HIV-1 MGRM-AG-003 Env (HIV-1)
[39] = molecular target: HIV-1 MGRM-AG-005 Env (HIV-1)
[40] = molecular target: HIV-1 MGRM-AG-006 Env (HIV-1)
[41] = molecular target: HIV-1 MGRM-AG-008 Env (HIV-1)
[42] = molecular target: HIV-1 MGRM-AG-009 Env (HIV-1)
[43] = molecular target: HIV-1 MGRM-AG-011 Env (HIV-1)
[44] = molecular target: HIV-1 MGRM-AG-012 Env (HIV-1)
[45] = molecular target: HIV-1 MGRM-AG-013 Env (HIV-1)
HIV-1 VLGCA1 Env (HIV-1) = molecular target: HIV-1 VLGCA1 Env (HIV-1)

Substance: 5123_A06 (PGT-125) (antibody)
- IC50 [1]: 0.004 µg/mL
- IC50 [2]: 0.006 µg/mL
- IC50 [3]: > 50 µg/mL
- IC50 [4]: 0.005 µg/mL
- IC50 [5]: 0.144 µg/mL
- IC50 [6]: 0.004 µg/mL
- IC50 [7]: 0.005 µg/mL
- IC50 [8]: 35.5 µg/mL
- IC50 [9]: 0.007 µg/mL
- IC50 [10]: 0.012 µg/mL
- IC50 [11]: > 50 µg/mL
- IC50 [12]: 0.004 µg/mL
- IC50 [13]: 0.008 µg/mL
- IC50 (HIV-1 CMU02 Env (HIV-1)): > 50 µg/mL
- IC50 [14]: 12.4 µg/mL
- IC50 [15]: 0.013 µg/mL
- IC50 [16]: > 50 µg/mL
- IC50 [17]: > 50 µg/mL
- IC50 [18]: > 50 µg/mL
- IC50 [19]: > 50 µg/mL
- IC50 [20]: > 50 µg/mL
- IC50 [21]: > 50 µg/mL
- IC50 [22]: 0.009 µg/mL
- IC50 [23]: 0.004 µg/mL
- IC50 [24]: > 50 µg/mL
- IC50 [25]: 0.177 µg/mL
- IC50 [26]: 0.014 µg/mL
- IC50 [27]: 13.9 µg/mL
- IC50 [28]: 2.95 µg/mL
- IC50 [29]: > 50 µg/mL
- IC50 [30]: 0.092 µg/mL
- IC50 [31]: > 50 µg/mL
- IC50 [32]: 0.01 µg/mL
- IC50 [33]: 0.009 µg/mL
- IC50 [34]: 0.876 µg/mL
- IC50 [35]: > 50 µg/mL
- IC50 [36]: > 50 µg/mL
- IC50 [37]: > 50 µg/mL
- IC50 [38]: > 50 µg/mL
- IC50 [39]: > 50 µg/mL
- IC50 [40]: 0.008 µg/mL
- IC50 [41]: > 50 µg/mL
- IC50 [42]: 0.026 µg/mL
- IC50 [43]: > 50 µg/mL
- IC50 [44]: > 50 µg/mL
- IC50 [45]: 0.004 µg/mL
- IC50 (HIV-1 VLGCA1 Env (HIV-1)): 0.078 µg/mL

Substance: 4877_D15 (PGT-122) (antibody)
- IC50 [1]: 0.003 µg/mL
- IC50 [2]: > 50 µg/mL
- IC50 [3]: > 50 µg/mL
- IC50 [4]: 0.068 µg/mL
- IC50 [5]: 42.4 µg/mL
- IC50 [6]: 0.009 µg/mL
- IC50 [7]: 0.021 µg/mL
- IC50 [8]: > 50 µg/mL
- IC50 [9]: 0.036 µg/mL
- IC50 [10]: 0.084 µg/mL
- IC50 [11]: > 50 µg/mL
- IC50 [12]: 0.056 µg/mL
- IC50 [13]: 2.04 µg/mL
- IC50 (HIV-1 CMU02 Env (HIV-1)): > 50 µg/mL
- IC50 [14]: > 50 µg/mL
- IC50 [15]: 0.017 µg/mL
- IC50 [16]: 3.79 µg/mL
- IC50 [17]: > 50 µg/mL
- IC50 [18]: > 50 µg/mL
- IC50 [19]: > 50 µg/mL
- IC50 [20]: > 50 µg/mL
- IC50 [21]: > 50 µg/mL
- IC50 [22]: 0.012 µg/mL
- IC50 [23]: 2.51 µg/mL
- IC50 [24]: > 50 µg/mL
- IC50 [25]: 0.257 µg/mL
- IC50 [26]: 2.47 µg/mL
- IC50 [27]: 0.007 µg/mL
- IC50 [28]: > 50 µg/mL
- IC50 [29]: > 50 µg/mL
- IC50 [30]: > 50 µg/mL
- IC50 [31]: > 50 µg/mL
- IC50 [32]: > 50 µg/mL
- IC50 [33]: > 50 µg/mL
- IC50 [34]: > 50 µg/mL
- IC50 [35]: > 50 µg/mL
- IC50 [36]: 14.5 µg/mL
- IC50 [37]: > 50 µg/mL
- IC50 [38]: 43.7 µg/mL
- IC50 [39]: 33.9 µg/mL
- IC50 [40]: 0.028 µg/mL
- IC50 [41]: > 50 µg/mL
- IC50 [42]: 0.128 µg/mL
- IC50 [43]: > 50 µg/mL
- IC50 [44]: > 50 µg/mL
- IC50 [45]: 0.521 µg/mL
- IC50 (HIV-1 VLGCA1 Env (HIV-1)): > 50 µg/mL
